Results on 1 variant are retold here after paper PMC7262597 (2020).

To fix the notation:
B1: Sir2-myc [Drosophila] / GST-Atg8a-WT [Drosophila] (parent complex)
chain 1: MMENYEEIRLGHIRSKDLGNQVPDTTQFYPPTKFDFGAEILASTSTEAEAEAEATATTTEPATSELAGKANGEIKTKTLAAREEQEIGANLEHKTKNPTKSMGEDEDDEEEEEEDDEEEEEDDEEGITGTSNEDEDSSSNCSSSVEPDWKLRWLQREFYTGRVPRQVIASIMPHFATGLAGDTDDSVLWDYLAHLLNEPKRRNKLASVNTFDDVISLVKKSQKIIVLTGAGVSVSCGIPDFRSTNGIYARLAHDFPDLPDPQAMFDINYFKRDPRPFYKFAREIYPGEFQPSPCHRFIKMLETKGKLLRNYTQNIDTLERVAGIQRVIECHGSFSTASCTKCRFKCNADALRADIFAQRIPVCPQCQPNKEQSVDASVAVTEEELRQLVENGIMKPDIVFFGEGLPDEYHTVMATDKDVCDLLIVIGSSLKVRPVAHIPSSIPATVPQILINREQLHHLKFDVELLGDSDVIINQICHRLSDNDDCWRQLCCDESVLTESKELMPPEHSNHHLHHHLLHHRHCSSESERQSQLDTDTQSIKSNSSADYILGSAGTCSDSGFESSTFSCGKRSTAAEAAAIERIKTDILVELNETTALSCDRLGLEGPQTTVESYRHLSIDSSKDSGIEQCDNEATPSYVRPSNLVQETKTVAPSLTPIPQQRGKRQTAAERLQPGTFYSHTNNYSYVFPGAQVFWDNDYSDDDDEEEERSHNRHSDLFGNVGHNYKDDDEDACDLNAVPLSPLLPPSLEAHIVTDIVNGSNEPLPNSSPGQKRTACIIEQQPTPAIETEIPPLKKRRPSEENKQQTQIERSEESPPPGQLAAV
chain 2: MKFQYKEEHAFEKRRAEGDKIRRKYPDRVPVIVEKAPKARIGDLDKKKYLVPSDLTVGQFYFLIRKRIHLRPEDALFFFVNNVIPPTSATMGSLYQEHHEEDYFLYIAYSDENVYGMAKIN

The test covers variants of B1. Kind of test: GST pull-down from larval lysate, anti-myc immunoblot, quantified; parent: 1; read off a plot.
As for chain 2 Y49A, the ratio to parent was ~0.21.
